The values below are quoted from earlier work in PMC11449013.

Where two headings read alike, the source gives them in different places.

The target of the series is His128 (UniProt position 179, FICPCHGSQYN).

Consider “Cytochrome b6f complex Rieske iron-sulfur protein (ISP, PetC) (Spinacia oleracea (residue numbering; the article does not state the species in which the quoted values were measured))”, for which the pKa entry was “∼6.2” (2Fe2S cluster oxidised) and “∼8” (2Fe2S cluster reduced).
